From patent publication US20240102068A1, “C-GLYCOSYLTRANSFERASE VARIANTS AND USE THEREOF” (KOREA ADVANCED INSTITUTE OF SCIENCE AND TECHNOLOGY, priority 2021, published 2024)
Entries after “also recorded” stand apart in the source; their conditions may differ.

Test system: FK
Assay: dcII production from FK by C-glycosyltransferase candidates and GtCGT mutants in FK-producing E. coli, flask culture
Type: cell-based
Conditions: for dcII production: FK-producing E. coli strain; for KA production compared with wild-type GtCGT: mutants transformed into FK strains
Procedure: Flask culture was carried out under the following conditions. Colonies were seeded into 10 mL of LB medium supplemented with appropriate concentrations of antibiotics, followed by culture overnight at 37° C. The culture fluid thus prepared was passaged into a 250 mL baffled flask containing 50 mL of R/2 medium supplemented with 3 g/L yeast extract and 20 g/L glucose (with 0.45 g/L ascorbic acid if necessary), followed by culture at 30° C. and 200 rpm. The composition of R/2 medium (pH 6.8) was as follows (per liter): 2 g of (NH4)2HPO4, 6.75 g of KH2PO4, 0.85 g of citric acid, 0.7 g of MgSO4·7H2O, and 5 ml of trace metal solution (TMS) [10 g of FeSO4·7H2O, 2.25 g of ZnSO4·7H2O, 1 g of CuSO4·5H2O, 0.5 g of MnSO4·5H2O, 0.23 g of Na2B4O7·10H2O, 2 g of CaCl2·2H2O, and 0.1 g of (NH4)6Mo7O24 per liter of 5 M HCl]. When OD600 of the culture fluid reached 0.6-0.8, 1 mM isopropyl β-D-1-thiogalactopyranoside (IPTG) was added to induce exogenous gene expression, followed by culture for 48 hours.
After culture, production analysis was performed under the following conditions. After flask culture, 50 mL of the culture fluid was centrifuged at 4,000 g for 30 minutes, and then the supernatant was desalted and concentrated. Here, Oasis HLB cartridges (Water) were used. The supernatant was concentrated 1-fold for FK, 30-fold for KA, 45-fold for dell, and 200-fold for carminic acid. The concentrated sample was re-dissolved in an appropriate volume of DMSO and impurities were then removed therefrom using a 0.22 μm PTFE filter. The prepared sample was analyzed by MS (LC/MSD VL; Agilent) coupled with HPLC (1100 series; Agilent). An Eclipse XDB-C18 column was used, 0.1% formic acid was used as buffer A, and methanol was used as buffer B. Analysis was performed in an ESI negative mode. For more accurate analysis of carminic acid, LC-MS/MS was performed using an HPLC Triple Quadrupole Mass Spectrometer (LCMS-8050, Shimadzu) (MRM mode).
Flask culture started by seeding colonies from LB agar plates into test tubes containing 10 mL of LB. As such, an appropriate concentration of antibiotics was added, followed by culture overnight at 37° C. at 220 rpm. 1 mL of the seed culture thus prepared was inoculated into a 250 mL baffled flask containing 50 mL of R/2 medium (supplemented with 3 g/L yeast extract and 20 g/L glucose), followed by culture at 30° C. and 200 rpm. The composition of R/2 medium was as follows (pH 6.8, per 1 L): 2 g of (NH4)2HPO4, 6.75 g of KH2PO4, 0.85 g of citric acid, 0.8 g of MgSO4·7H2O, and 5 ml of trace metal solution (TMS). The composition of TMS was as follows (based on 0.1 M HCl, per 1 L): 10 g of FeSO4·7H2O, 2.25 g of ZnSO4·7H2O, 1 g of CuSO4·5H2O, 0.58 g of MnSO4·5H2O, 0.02 g of Na2B4O7·10H2O, 2 g of CaCl2·2H2O, and 0.1 g of (NH4)6Mo7O24·4H2O. When OD600 of the culture fluid reached 0.6-0.8, 0.5 mM IPTG was added to induce exogenous enzyme expression, followed by culture for 48 hours. In all experiments for producing flavokermesic acid, kermesic acid, dcII, and carminic acid, 0.45 g/L of ascorbic acid was further added.
The production of carminic acid (CA) from FK was performed by two biosynthesis pathways, both of which require monooxygenase and C-glycosyltransferase. FK may be oxidized into KA or may be C-glycosylated into dcII. […] In order for the enzyme to have activity, however, it must be glycosylated, and since it also has a transmembrane helix and a signal peptide, successful expression in cells such as E. coli is considered difficult.
For the enzymes selected above, pCDF-DcCGT, pCDF-MiCGT, pCDF-SfCGT, pCDF-EnCGT, pCDF-OsCGT, pCDF-FeCGT, pCDF-GmCGT, pCDF-AvCGT, pCDF-AvCGT, pCDF-ZmCGT, and pCDF-GtCGT were constructed, and all genes except for the iroB gene amplified from genomic DNA of E. coli Nissle using the iroB_gib_F primer and the iroB_gib_R primer were artificially synthesized and inserted into the NdeI site of the pCDFDuet-1 plasmid using Gibson assembly. […]

B1: ZmCGT: UGT708A6 from Zea mays which acts as a dual C/O-glycosyltransferase (protein, UniProt A0A096SRM5 1-475, looked up)
UDP-glycosyltransferase 708A6: MAANGGDHTSARPHVVLLPSAGMGHLVPFARLAVALSEGHGCNVSVAAVQPTVSSAESRLLDALFVAAAPAVRRLDFRLAPFDESEFPGADPFFLRFEATRRSAPLLGPLLDAAEASALVTDIVLASVALPVARERGVPCYVLFTSSAAMLSLCAYFPAYLDAHAAAGSVGVGVGNVDIPGVFRIPKSSVPQALHDPDHLFTQQFVANGRCLVACDGILVNTFDAFEPDAVTALRQGSITVSGGFPPVFTVGPMLPVRFQAEETADYMRWLSAQPPRSVVYVSFGSRKAIPRDQLRELAAGLEASGKRFLWVVKSTIVDRDDTADLGGLLGDGFLERVQGRAFVTMGWVEQEEILQHGSVGLFISHCGWNSLTEAAAFGVPVLAWPRFGDQRVNAALVARSGLGAWEEGWTWDGEEGLTTRKEVAKKIKGMMGYDAVAEKAAKVGDAAAAAIAKCGTSYQSLEEFVQRCRDAERK
For B1, the “dcII production from FK (in words)” value (FK-producing E. coli) was “able to successfully convert FK into dell; also recorded: very small amount” and the “main product from FK” value (FK-producing E. coli) was “O-glycosylated FK”.

B2: GtCGT: wild-type C-glycosyltransferase GtUF6CGT1 from Gentiana triflora (SEQ ID NO: 1) (protein, listed as Gentiana triflora)
chain: MGSLTNNDNLHIFLVCFIGQGVVNPMLRLGKAFASKGLLVTLSAPEIVGTEIRKANNLNDDQPIKVGSGMIRFEFFDDGWESVNGSKPFDVWVYINHLDQTGRQKLPIMLKKHEETGTPVSCLILNPLVPWVADVADSLQIPCATLWVQSCASFSAYYHYHHGLVPFPTESEPEIDVQLPGMPLLKYDEVPDYLHPRTPYPFFGTNILGQFKNLSKNFCILMDTFYELEHEIIDNMCKLCPIKPIGPLFKIPKDPSSNGITGNFMKVDDCKEWLDSRPTSTVVYVSVGSVVYLKQEQVTEMAYGILNSEVSFLWVLRPPSKRIGTEPHVLPEEFWEKAGDRGKVVQWSPQEQVLAHPATVGFLTHCGWNSTQEAISSGVPVITFPQFGDQVTNAKFLVEEFKVGVRLGRGELENRIITRDEVERALREITSGPKAEEVKENALKWKKKAEETVAKGGYSERNLVGFIEEVARKTGTK
B2 was tested, and the “dcII production from FK (in words)” value (FK-producing E. coli) was “able to successfully convert FK into dell”, the dcII production (flask culture) was 0.13 mg CA eq/L and the dcII production (galU, pgm and ndk overexpressed) was 0.30 mg CA eq/L.

B3: GtCGT^V93Q (protein)
chain: MGSLTNNDNLHIFLVCFIGQGVVNPMLRLGKAFASKGLLVTLSAPEIVGTEIRKANNLNDDQPIKVGSGMIRFEFFDDGWESVNGSKPFDVWQYINHLDQTGRQKLPIMLKKHEETGTPVSCLILNPLVPWVADVADSLQIPCATLWVQSCASFSAYYHYHHGLVPFPTESEPEIDVQLPGMPLLKYDEVPDYLHPRTPYPFFGTNILGQFKNLSKNFCILMDTFYELEHEIIDNMCKLCPIKPIGPLFKIPKDPSSNGITGNFMKVDDCKEWLDSRPTSTVVYVSVGSVVYLKQEQVTEMAYGILNSEVSFLWVLRPPSKRIGTEPHVLPEEFWEKAGDRGKVVQWSPQEQVLAHPATVGFLTHCGWNSTQEAISSGVPVITFPQFGDQVTNAKFLVEEFKVGVRLGRGELENRIITRDEVERALREITSGPKAEEVKENALKWKKKAEETVAKGGYSERNLVGFIEEVARKTGTK
In the case of B3, the “dcII production increase compared to wild-type GtCGT” value (FK strain, flask culture) is reported as “about 2.9 fold”, the “dcII production from FK (in words)” value (FK-producing E. coli) is reported as “highest dcII production” and the “KA production compared with wild-type GtCGT” value (flask culture) is reported as “higher KA production than wild-type GtCGT”.

B4: L164G: GtCGT single mutant L164G (protein, listed as Gentiana triflora)
chain: MGSLTNNDNLHIFLVCFIGQGVVNPMLRLGKAFASKGLLVTLSAPEIVGTEIRKANNLNDDQPIKVGSGMIRFEFFDDGWESVNGSKPFDVWVYINHLDQTGRQKLPIMLKKHEETGTPVSCLILNPLVPWVADVADSLQIPCATLWVQSCASFSAYYHYHHGGVPFPTESEPEIDVQLPGMPLLKYDEVPDYLHPRTPYPFFGTNILGQFKNLSKNFCILMDTFYELEHEIIDNMCKLCPIKPIGPLFKIPKDPSSNGITGNFMKVDDCKEWLDSRPTSTVVYVSVGSVVYLKQEQVTEMAYGILNSEVSFLWVLRPPSKRIGTEPHVLPEEFWEKAGDRGKVVQWSPQEQVLAHPATVGFLTHCGWNSTQEAISSGVPVITFPQFGDQVTNAKFLVEEFKVGVRLGRGELENRIITRDEVERALREITSGPKAEEVKENALKWKKKAEETVAKGGYSERNLVGFIEEVARKTGTK
With B4 the “KA production compared with wild-type GtCGT” value (flask culture) was “higher KA production than wild-type GtCGT”.

B5: Y193F (protein, listed as Gentiana triflora)
chain: MGSLTNNDNLHIFLVCFIGQGVVNPMLRLGKAFASKGLLVTLSAPEIVGTEIRKANNLNDDQPIKVGSGMIRFEFFDDGWESVNGSKPFDVWVYINHLDQTGRQKLPIMLKKHEETGTPVSCLILNPLVPWVADVADSLQIPCATLWVQSCASFSAYYHYHHGLVPFPTESEPEIDVQLPGMPLLKYDEVPDFLHPRTPYPFFGTNILGQFKNLSKNFCILMDTFYELEHEIIDNMCKLCPIKPIGPLFKIPKDPSSNGITGNFMKVDDCKEWLDSRPTSTVVYVSVGSVVYLKQEQVTEMAYGILNSEVSFLWVLRPPSKRIGTEPHVLPEEFWEKAGDRGKVVQWSPQEQVLAHPATVGFLTHCGWNSTQEAISSGVPVITFPQFGDQVTNAKFLVEEFKVGVRLGRGELENRIITRDEVERALREITSGPKAEEVKENALKWKKKAEETVAKGGYSERNLVGFIEEVARKTGTK
For B5, the “dcII production from FK (in words)” value (FK-producing E. coli) was “second highest concentration of dell” and the “KA production compared with wild-type GtCGT” value (flask culture) was “higher KA production than wild-type GtCGT”.

B6: F17G (protein, listed as Gentiana triflora)
chain: MGSLTNNDNLHIFLVCGIGQGVVNPMLRLGKAFASKGLLVTLSAPEIVGTEIRKANNLNDDQPIKVGSGMIRFEFFDDGWESVNGSKPFDVWVYINHLDQTGRQKLPIMLKKHEETGTPVSCLILNPLVPWVADVADSLQIPCATLWVQSCASFSAYYHYHHGLVPFPTESEPEIDVQLPGMPLLKYDEVPDYLHPRTPYPFFGTNILGQFKNLSKNFCILMDTFYELEHEIIDNMCKLCPIKPIGPLFKIPKDPSSNGITGNFMKVDDCKEWLDSRPTSTVVYVSVGSVVYLKQEQVTEMAYGILNSEVSFLWVLRPPSKRIGTEPHVLPEEFWEKAGDRGKVVQWSPQEQVLAHPATVGFLTHCGWNSTQEAISSGVPVITFPQFGDQVTNAKFLVEEFKVGVRLGRGELENRIITRDEVERALREITSGPKAEEVKENALKWKKKAEETVAKGGYSERNLVGFIEEVARKTGTK
In the case of B6, the “KA production compared with wild-type GtCGT” value (flask culture) is reported as “higher KA production than wild-type GtCGT”.

B7: R322D (protein, listed as Gentiana triflora)
chain: MGSLTNNDNLHIFLVCFIGQGVVNPMLRLGKAFASKGLLVTLSAPEIVGTEIRKANNLNDDQPIKVGSGMIRFEFFDDGWESVNGSKPFDVWVYINHLDQTGRQKLPIMLKKHEETGTPVSCLILNPLVPWVADVADSLQIPCATLWVQSCASFSAYYHYHHGLVPFPTESEPEIDVQLPGMPLLKYDEVPDYLHPRTPYPFFGTNILGQFKNLSKNFCILMDTFYELEHEIIDNMCKLCPIKPIGPLFKIPKDPSSNGITGNFMKVDDCKEWLDSRPTSTVVYVSVGSVVYLKQEQVTEMAYGILNSEVSFLWVLRPPSKDIGTEPHVLPEEFWEKAGDRGKVVQWSPQEQVLAHPATVGFLTHCGWNSTQEAISSGVPVITFPQFGDQVTNAKFLVEEFKVGVRLGRGELENRIITRDEVERALREITSGPKAEEVKENALKWKKKAEETVAKGGYSERNLVGFIEEVARKTGTK
In the case of B7, the “KA production compared with wild-type GtCGT” value (flask culture) is reported as “higher KA production than wild-type GtCGT”.
